This experiment addresses RNF111 RING (Homo sapiens), Q6ZNA4.

Chain of RNF111 RING (Homo sapiens), Q6ZNA4 (Q6ZNA4 939-986): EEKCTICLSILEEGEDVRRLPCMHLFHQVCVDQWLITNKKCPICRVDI

B1: UBXN7 UAS, O94888 (protein)
chain: IDKKLTTLADLFRPPIDLMHKGSFETAKECGQMQNKWLMINIQNVQDFACQCLNRDVWSNEAVKNIIREHFIFWQVYHDSEEGQRYIQFYKLGDFPYVSILDPRTGQKLVEWHQLDVSSFLDQVTGFLGE
B1: the Kd (as a rule, the equilibrium constant for the complex coming apart) worked out at 1000 nM.

The record behind these values is publication PMC10080908.
